Experimental data taken from patent publication US7378087.

Tests used:
[1] = molecular target: H-2D^b MHC class I molecule (mouse) (UniProt P01899); assay: FACS on CMT.64 cells; IFN -, peptide -, hβ2m -
[2] = molecular target: H-2D^b MHC class I molecule (mouse) (UniProt P01899); assay: FACS on RMA-S cells; IFN +, peptide +, hβ2m -
[3] = molecular target: H-2D^b MHC class I molecule (mouse) (UniProt P01899); assay: FACS on RMA-S cells; IFN -, peptide -, hβ2m -
[4] = molecular target: H-2D^b MHC class I molecule (mouse) (UniProt P01899); assay: FACS on RMA-S cells; IFN -, peptide +, hβ2m +
[5] = molecular target: H-2D^b MHC class I molecule (mouse) (UniProt P01899); assay: FACS on RMA cells; IFN -, peptide +, hβ2m +
[6] = molecular target: H-2D^b MHC class I molecule (mouse) (UniProt P01899); assay: FACS on RMA-S cells; IFN +, peptide -, hβ2m -
[7] = molecular target: H-2D^b MHC class I molecule (mouse) (UniProt P01899); assay: FACS on RMA cells; IFN +, peptide +, hβ2m -
[8] = molecular target: H-2D^b MHC class I molecule (mouse) (UniProt P01899); assay: FACS on RMA cells; IFN +, peptide +, hβ2m +
[9] = molecular target: H-2D^b MHC class I molecule (mouse) (UniProt P01899); assay: FACS on CMT.64 cells; IFN +, peptide -, hβ2m -
[10] = molecular target: H-2D^b MHC class I molecule (mouse) (UniProt P01899); assay: FACS on RMA cells; IFN +, peptide -, hβ2m -
[11] = molecular target: H-2D^b MHC class I molecule (mouse) (UniProt P01899); assay: FACS on CMT.64 cells; IFN * (so in the source), peptide +, hβ2m +
[12] = molecular target: H-2D^b MHC class I molecule (mouse) (UniProt P01899); assay: FACS on RMA cells; IFN +, peptide -, hβ2m +
[13] = molecular target: H-2D^b MHC class I molecule (mouse) (UniProt P01899); assay: FACS on RMA-S cells; IFN +, peptide +, hβ2m +
[14] = molecular target: H-2D^b MHC class I molecule (mouse) (UniProt P01899); assay: FACS on CMT.64 cells; IFN -, peptide +, hβ2m +
[15] = molecular target: H-2D^b MHC class I molecule (mouse) (UniProt P01899); assay: FACS on RMA-S cells; IFN +, peptide -, hβ2m +
[16] = molecular target: H-2D^b MHC class I molecule (mouse) (UniProt P01899); assay: FACS on RMA cells; IFN -, peptide -, hβ2m -
[17] = molecular target: H-2K^b MHC class I molecule (mouse) (UniProt P01901); assay: FACS on CMT.64 cells; IFN -, peptide -, hβ2m -
[18] = molecular target: H-2K^b MHC class I molecule (mouse) (UniProt P01901); assay: FACS on RMA-S cells; IFN +, peptide +, hβ2m -
[19] = molecular target: H-2K^b MHC class I molecule (mouse) (UniProt P01901); assay: FACS on RMA-S cells; IFN -, peptide -, hβ2m -
[20] = molecular target: H-2K^b MHC class I molecule (mouse) (UniProt P01901); assay: FACS on RMA-S cells; IFN -, peptide +, hβ2m +
[21] = molecular target: H-2K^b MHC class I molecule (mouse) (UniProt P01901); assay: FACS on RMA cells; IFN -, peptide +, hβ2m +
[22] = molecular target: H-2K^b MHC class I molecule (mouse) (UniProt P01901); assay: FACS on RMA-S cells; IFN +, peptide -, hβ2m -
[23] = molecular target: H-2K^b MHC class I molecule (mouse) (UniProt P01901); assay: FACS on RMA cells; IFN +, peptide +, hβ2m -
[24] = molecular target: H-2K^b MHC class I molecule (mouse) (UniProt P01901); assay: FACS on RMA cells; IFN +, peptide +, hβ2m +
[25] = molecular target: H-2K^b MHC class I molecule (mouse) (UniProt P01901); assay: FACS on CMT.64 cells; IFN +, peptide -, hβ2m -
[26] = molecular target: H-2K^b MHC class I molecule (mouse) (UniProt P01901); assay: FACS on RMA cells; IFN +, peptide -, hβ2m -
[27] = molecular target: H-2K^b MHC class I molecule (mouse) (UniProt P01901); assay: FACS on CMT.64 cells; IFN * (so in the source), peptide +, hβ2m +
[28] = molecular target: H-2K^b MHC class I molecule (mouse) (UniProt P01901); assay: FACS on RMA cells; IFN +, peptide -, hβ2m +
[29] = molecular target: H-2K^b MHC class I molecule (mouse) (UniProt P01901); assay: FACS on RMA-S cells; IFN +, peptide +, hβ2m +
[30] = molecular target: H-2K^b MHC class I molecule (mouse) (UniProt P01901); assay: FACS on CMT.64 cells; IFN -, peptide +, hβ2m +
[31] = molecular target: H-2K^b MHC class I molecule (mouse) (UniProt P01901); assay: FACS on RMA-S cells; IFN +, peptide -, hβ2m +
[32] = molecular target: H-2K^b MHC class I molecule (mouse) (UniProt P01901); assay: FACS on RMA cells; IFN -, peptide -, hβ2m -

Chain of UniProt P01899 (P01899 25-309 limits assumed): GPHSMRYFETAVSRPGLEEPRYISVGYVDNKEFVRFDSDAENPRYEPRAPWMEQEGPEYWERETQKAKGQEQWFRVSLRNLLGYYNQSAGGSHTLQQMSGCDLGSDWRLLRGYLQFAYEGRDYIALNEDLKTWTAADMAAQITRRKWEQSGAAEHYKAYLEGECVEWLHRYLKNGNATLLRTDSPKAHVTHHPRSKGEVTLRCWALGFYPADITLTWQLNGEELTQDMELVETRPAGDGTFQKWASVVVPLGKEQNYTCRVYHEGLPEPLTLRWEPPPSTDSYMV
Chain of UniProt P01901 (P01901 22-305 limits assumed): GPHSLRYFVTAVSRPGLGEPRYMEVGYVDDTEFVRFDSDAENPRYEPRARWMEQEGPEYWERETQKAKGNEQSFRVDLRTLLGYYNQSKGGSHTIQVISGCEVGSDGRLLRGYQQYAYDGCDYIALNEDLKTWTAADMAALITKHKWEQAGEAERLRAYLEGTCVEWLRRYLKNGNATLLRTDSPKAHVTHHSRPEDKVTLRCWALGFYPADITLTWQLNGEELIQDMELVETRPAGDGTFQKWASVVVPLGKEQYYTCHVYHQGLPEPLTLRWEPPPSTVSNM

A fluorescence units (arbitrary fluorescence units) [1] of 3, a fluorescence units (arbitrary fluorescence units) [2] of 1 and a fluorescence units (arbitrary fluorescence units) [3] of 2 were found for “28-11-5s anti H-2 D^b (α1+α2) monoclonal antibody” in this work. It also gave a fluorescence units (arbitrary fluorescence units) [4] of 2, a fluorescence units (arbitrary fluorescence units) [5] of 182 and a fluorescence units (arbitrary fluorescence units) [6] of 4. It also gave a fluorescence units (arbitrary fluorescence units) [7] of 449, a fluorescence units (arbitrary fluorescence units) [8] of 515 and a fluorescence units (arbitrary fluorescence units) [9] of 58. It also gave a fluorescence units (arbitrary fluorescence units) [10] of 430, a fluorescence units (arbitrary fluorescence units) [11] of 53 and a fluorescence units (arbitrary fluorescence units) [12] of 549. The fluorescence units (arbitrary fluorescence units) [13] was 2, the fluorescence units (arbitrary fluorescence units) [14] was 5 and the fluorescence units (arbitrary fluorescence units) [15] was 2. It also gave a fluorescence units (arbitrary fluorescence units) [16] of 173.
A fluorescence units (arbitrary fluorescence units) [17] of 5, a fluorescence units (arbitrary fluorescence units) [18] of 10 and a fluorescence units (arbitrary fluorescence units) [19] of 12 were found for “142-23.3 anti H-2 K^b monoclonal antibody” in this work. It also gave a fluorescence units (arbitrary fluorescence units) [20] of 70, a fluorescence units (arbitrary fluorescence units) [21] of 242 and a fluorescence units (arbitrary fluorescence units) [22] of 12. It also gave a fluorescence units (arbitrary fluorescence units) [23] of 606, a fluorescence units (arbitrary fluorescence units) [24] of 780 and a fluorescence units (arbitrary fluorescence units) [25] of 26. For the same substance, the fluorescence units (arbitrary fluorescence units) [26] was 346, the fluorescence units (arbitrary fluorescence units) [27] was 35 and the fluorescence units (arbitrary fluorescence units) [28] was 438. It also gave a fluorescence units (arbitrary fluorescence units) [29] of 41, a fluorescence units (arbitrary fluorescence units) [30] of 8 and a fluorescence units (arbitrary fluorescence units) [31] of 10. It also gave a fluorescence units (arbitrary fluorescence units) [32] of 164.
